Legend:
pro-caspase-12 = assay: In vitro cleavage of [35S]-labeled protein by partially purified caspase-12Δ2; assay type: biochemical, mouse; conditions: 1 hr at 37° C., 0.1 μg enzyme
Text: (§1) FIGS. 8A-8C Protease activity of caspase-12Δ2. […] Proteins were run on 15% gel and detected by Coomassie brilliant blue staining. Arrowheads indicate polypeptides derived from caspase-12 proteins. FIG. 8B is a diagram of processing sites on caspase-12Δ and caspase-12Δ2. […] Reaction was stopped by boiling with the addition of sample buffer for SDS-polyacrylamide gel electrophoresis. The molecular sizes in kilodaltons are indicated at the left.
(§2) ICE, casp-2 and casp-3 were cloned into a pET-15b vector (Novagen) and their expression was induced in the presence of 0.2-0.3 mM IPTG (Wang, S., et a., J. Biol. Chem. 271:20580-20587 (1996); Cryns, V. L., et al., J. Biol. Chem. 271:31277-31282 (1996)). Bacterial lysates containing the ICE-like proteases were prepared as described (Wang, S., et al., J. Biol. Chem. 271:20580-20587 (1996); Cryns, V. L., et al., J. Biol. Chem. 271:31277-31282 (1996)). [^35S]-labeled proteins were prepared by in vitro transcription and translation using a TNT coupled reticulocyte lysate system (Promega) and [^35S]methionine (Amersham). Labeled proteins were incubated at 37° C. with purified caspase-12Δ2 or at 30° C. with E. coli lysates containing the caspase family members. […] Cleavage products were analyzed by either 10- or 15% SDS-polyacrylamide gel electrophoresis. […]

[1] = tested on: pro-ICE, pro-caspase-2 and pro-caspase-3; assay: In vitro cleavage of [35S]-labeled proteins by partially purified caspase-12Δ2; assay type: biochemical; conditions: 1 hr or 3 hr incubation
Text: as §1, §2

[2] = tested on: pro-IL-1β and poly(ADP-ribose) polymerase; assay: Cleavage of preferred ICE and caspase-3 substrates by purified caspase-12Δ2; assay type: biochemical
Method: as §2, with “members. The reaction mixture contained 25 mM Hepes (pH 7.5) with 5 mM EDTA, 5 mM dithiothreitol, 10% sucrose, 10 μg/ml leupeptin and 250 μM phenylmethylsulfonyl fluoride. Amount of proteins used for cleavage reaction were: 0.1 μg for partially purified caspase-12Δ2, 25-70 μg for E. coli lysate.” for “members.”

B1: caspase-12Δ2: truncated His-tagged caspase-12, amino acid residues 145-419 of SEQ ID NO:2 (protein)
chain: TLKLCPRDQFCKIKTERAKEIYPVMEKEGRTRLALIICNKKFDYLFDRDNADTDILNMQELLENLGYSVVLKENLTAQEMETELMQFAGRPEHQSSDSTFLVFMSHGILEGICGVKHRNKKPDVLHDDTIFKIFNNSNCRSLRNKPKILIMQACRGRYNGTIWVSTNKGIATADTDEERVLSCKWNNSITKAHVETDFIAFKSSTPHNISWKVGKTGSLFISKLIDCFKKYCWCYHLEEIFRKVQHSFEVPGELTQMPTIERVSMTRYFYLFPGN
modifications: His tag
- processing of pro-caspase-12 (48 kDa) into fragments (pro-caspase-12): can efficiently process
- cleavage of pro-ICE, pro-caspase-2 and pro-caspase-3 [1]: only faint bands of cleavage products
- cleavage of pro-IL-1β and poly(ADP-ribose) polymerase [2]: little activity
